This passage reports Kd results from article PMC4427307.

What is called Kd is a measure of binding affinity in units of concentration.

The target of the experiment is human insulin (human). Put plainly: BLI; Octet Red, 96-well microplates, 25°C; biotinylated human insulin (12.5-50 μg/ml) immobilised on Streptavidin Biosensors; rSjLD1 (3.5-56 μg/ml) or rSjLD2 (1.78-56 μg/ml) in solution; kinetic buffer (1mM phosphate, 15mM NaCl, 0.1mg/ml BSA, 0.002% Tween-20); association 1000 s, dissociation …; double reference subtraction (BSA negative control and sensor).

Substance “recombinant L1 subdomain of Schistosoma japonicum insulin receptor 1 (SjLD1), expressed in Drosophila S2 cells (domain or fragment)” registered a Kd of 64.4 nM.
For the substance “recombinant L1 subdomain of Schistosoma japonicum insulin receptor 2 (SjLD2), expressed in Drosophila S2 cells (domain or fragment)”, the Kd was found to be 8.78 nM.
